Source: patent publication US20170088610A1
pKd: −log10 of the molar value. Read-outs that look alike come from different tables or passages of the source.

Experiments:
[1] = target: human nerve growth factor (human) (UniProt P01138); test: BIAcore SPR, Fab over immobilised human NGF (100 RU)
[2] = target: human nerve growth factor (human) (UniProt P01138); test: BIAcore SPR, Fab over immobilised human NGF
[3] = target: human nerve growth factor (human) (UniProt P01138); test: BIAcore SPR, Fab over immobilised human NGF (100 RU); remark: listed apart in the source
[4] = target: human nerve growth factor (human) (UniProt P01138); test: cell-based or functional assay
[5] = target: rat nerve growth factor (rat) (UniProt P25427); test: cell-based or functional assay
[6] = target: human nerve growth factor (human) (UniProt P01138)

Chain of human nerve growth factor (human) (P01138 122-241 limits assumed): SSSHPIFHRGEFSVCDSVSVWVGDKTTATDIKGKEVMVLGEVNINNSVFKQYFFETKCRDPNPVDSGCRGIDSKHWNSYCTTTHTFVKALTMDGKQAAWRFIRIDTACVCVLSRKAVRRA
Chain of rat nerve growth factor (rat) (P25427 122-241 limits assumed): as the sequence (P01138 122-241 limits assumed) above, with S3T, I6V, R9M, M37T, D60A, D65E, M92T, G94D, V117A, A120G counted along it

## mouse monoclonal anti-NGF antibody 911 (Fab)
[1]
  pKd: 8.43
  koff: 9e-05 s⁻¹
  kon: 22000 M⁻¹ s⁻¹
[2]
  pKd: 8.00
[3]
  koff: 8.4e-05 s⁻¹
[4]
  IC50, human NGF-dependent survival of mouse E13.5 trigeminal neurons (1.5 pM NGF): 63.5 pM
  IC50, human NGF-dependent survival of mouse E13.5 trigeminal neurons (15 pM NGF): 322 pM
  NGF-elicited survival of E17/18 trigeminal neurons: 20 nM
[5]
  IC50, rat NGF-dependent survival of mouse E13.5 trigeminal neurons (1.5 pM NGF): 34.6 pM
  IC50, rat NGF-dependent survival of mouse E13.5 trigeminal neurons (15 pM NGF): 161 pM

## trkA receptor immunoadhesin (Fc fusion)
[6]
  IC50 (read off the curve), NGF-dependent survival of E13.5 trigeminal neurons (0.4 ng/ml human NGF, 48 h): 0.07 nM
